Reference: article PMC9976904, “eIF4A1-dependent mRNAs employ purine-rich 5’UTR sequences to activate localised eIF4A1-unwinding through eIF4A1-multimerisation to facilitate translation”

Experiments:
eIF4A1 [1] = biological target: T1, eIF4A1 (human, UniProt P60842 1-406); assay: EMSA; silvestrol; multimerisation observed; 20 mM HEPES/KOH pH 7.5, 100 mM KCl, 1 mM TCEP, 1% DMSO, 2 mM AMPPNP/MgCl2, 25 C, 60 min; EMSA gels 6-7% acrylamide-TB, 0.5x TB; conditions: protein: recombinant; tags: N-terminal 6xHis-SUMO, cleaved; label: FAM
T1 sequence (P60842 whole entry): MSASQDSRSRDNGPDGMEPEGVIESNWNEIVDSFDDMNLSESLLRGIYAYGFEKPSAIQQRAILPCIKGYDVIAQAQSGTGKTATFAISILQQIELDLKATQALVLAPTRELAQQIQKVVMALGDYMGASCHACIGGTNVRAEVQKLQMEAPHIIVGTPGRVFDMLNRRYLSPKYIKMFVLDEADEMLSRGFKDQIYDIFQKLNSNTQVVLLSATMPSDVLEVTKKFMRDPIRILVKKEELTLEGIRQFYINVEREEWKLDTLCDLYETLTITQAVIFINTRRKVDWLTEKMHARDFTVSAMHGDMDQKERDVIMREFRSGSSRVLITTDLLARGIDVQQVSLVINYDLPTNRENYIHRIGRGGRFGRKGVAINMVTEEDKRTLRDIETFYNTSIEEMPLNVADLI

eIF4A1 [2] = biological target: T1, eIF4A1; assay: EMSA; silvestrol, MgCl2, no ATP; fully bound with and without scavenger AG-RNA; 20 mM HEPES/KOH pH 7.5, 100 mM KCl, 1 mM TCEP, 1% DMSO, 2 mM AMPPNP/MgCl2, 25 C, 60 min; EMSA gels 6-7% acrylamide-TB, 0.5x TB; conditions: protein: recombinant; tags: N-terminal 6xHis-SUMO, cleaved; label: EMSA: 5' Dy780 / 5' Dy680; FRET: 5' Cy3 / 5' Cy5; 5' overhang 20 nt
eIF4A1 [3] = biological target: T1, eIF4A1; assay: fluorescence anisotropy; 2 mM AMPPNP/MgCl2; affinity comparable to AG-RNA, Kd in figure only; 20 mM HEPES/KOH pH 7.5, 100 mM KCl, 1 mM TCEP, 1% DMSO, 2 mM AMPPNP/MgCl2, 25 C, 60 min; EMSA gels 6-7% acrylamide-TB, 0.5x TB; conditions: protein: recombinant; tags: N-terminal 6xHis-SUMO, cleaved; label: FAM or 5' Dy780

B1: 10 nt AG-RNA (ssRNA)
RNA: AGAGAGAGAG
binding result (eIF4A1 [1]): binds

B2: AG-overhang 24 bp substrate (EMSA/FRET loading + reporter) (dsRNA)
RNA 1: AGAGAGAGAGAGAGAGAGAGGAAAAAAUUAAAAAAUUAAAAAAC
RNA 2: GUUUUUUAAUUUUUUAAUUUUUUC
binding result (eIF4A1 [2]): binds

B3: CAA-RNA (20 nt) (ssRNA)
RNA: CAACAACAACAACAACAACA
binding result (eIF4A1 [3]): binds
